The values that follow come from patent US20050049402A1 (Amgen, published 2005).

Test [1] concerns the target T1, human TNFα (Tumor Necrosis Factor-alpha), soluble (human, UniProt P01375 77-233).
T1 construct: Recombinant (R&D 210-TA/CF) in screens; biotinylated in the limited antigen assay; also called hTNFα; H-TNFα
Put plainly: KinExA, TNFα counted as one trimer; KinExA, one trimer (52.5 kDa); lower bound of the Kd fit. On the procedure: (§1) The kinetic measurements of the anti-TNFα antibodies were evaluated using KinExA® and BIACORE® technologies. The KinExA® method involves solution-based determination of formal affinity measurements at equilibrium. To measure the binding kinetics of each human anti-TNFα antibody, two experiments in replicates of three were performed. In both experiments a known concentration of antigen was titrated and a different antibody concentration was added to each antigen titration and allowed to reach binding equilibrium. […] The results were analyzed by dual curve analysis. […] In addition, to negate the possibility of avidity effects, Fab fragments were generated by papain cleavage and the kinetic analysis was repeated (see Table 24).

Test [2] deals with T1, human TNFα (Tumor Necrosis …). Put plainly: KinExA, TNFα counted as three monomers; KinExA, three monomers (17.5 kDa); upper bound of the Kd fit. On the procedure:
as §1
(In general: A kinetic exclusion assay measures how much of one partner remains free in solution.)

For test [3] the target is unchanged. Put plainly: KinExA, TNFα counted as one trimer; KinExA in solution; TNFα site concentration as one trimer (52.5 kDa). On the procedure:
as §1

Test [4] shares this target. In words: KinExA, TNFα counted as one trimer; KinExA, one trimer (52.5 kDa); upper bound of the Kd fit. On the procedure: as §1
Test [5] shares this target. In words: KinExA, TNFα counted as three monomers; KinExA in solution; TNFα site concentration as three monomers (17.5 kDa). On the procedure:
as §1

Test [6] shares this target. Put plainly: KinExA, TNFα counted as three monomers. On the procedure: as §1
Test [7] has the same target. Put plainly: cell-based or functional assay.
Test [8] has as its target human TNFα R31Q, Q27E mutant (human, UniProt P01375 77-233). Put plainly: ELISA on chimeric/mutant TNFα. From the text:
(§2) In order to define the binding site for different antibodies, a number of residues of hTNFα were mutated using site directed mutagenesis. A panel of antibodies was screened for binding by an ELISA assay. […] Histidine at position 73 was deleted, an example is illustrated in Table 19.
In general terms: In an ELISA, binding on a coated surface is turned into a signal by an enzyme label.

Another test deals with human TNFα R31Q mutant (human, UniProt P01375 77-233). Put plainly: ELISA on chimeric/mutant TNFα.
human TNFα R31Q mutant, sequence (P01375 77-233 R107Q): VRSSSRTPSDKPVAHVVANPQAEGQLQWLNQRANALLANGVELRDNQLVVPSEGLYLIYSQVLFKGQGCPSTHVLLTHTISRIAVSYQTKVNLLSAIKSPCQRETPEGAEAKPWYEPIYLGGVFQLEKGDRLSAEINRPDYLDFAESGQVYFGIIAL
Source text: as §2

The target of the next test is human TNFα R131Q mutant (human, UniProt P01375 77-233). Put plainly: ELISA on chimeric/mutant TNFα.
Source text: as §2

Another test addresses T2, mouse TNFα (mouse, UniProt P06804 80-235).
T2 construct: also called M TNFα; murine TNF
T2 sequence: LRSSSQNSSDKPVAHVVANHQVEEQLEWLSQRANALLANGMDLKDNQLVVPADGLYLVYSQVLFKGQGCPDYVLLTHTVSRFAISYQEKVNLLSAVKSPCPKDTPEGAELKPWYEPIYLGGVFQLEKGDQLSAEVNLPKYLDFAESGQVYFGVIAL
In words: binding to chimeric TNF proteins.

The target in a further test is T3, human GST-TNFα (human, UniProt P01375 77-233).
T3 construct: also called E. coli expressed soluble human TNF; not shown: GST fusion partner
In words: ELISA, plate coated with 0.5 µg/ml human GST-TNFα, HRP goat anti-human IgG detection. On the procedure:
(§3) Anti-TNFα antibodies were also tested for their ability to bind to soluble recombinant TNFα. Human and monkey (cynomolgous macaque) TNFα were expressed in E. coli as fusion proteins with GST. Binding was assessed by ELISA. […] Bound antibody was detected using an HRP-conjugated goat anti-human IgG antibody.

Test [9] concerns the target T1, human TNFα (Tumor Necrosis …). Put plainly: KinExA, TNFα counted as one trimer. On the procedure:
as §1

Test [10] has the same target. Put plainly: cell-based or functional assay. This is another data set of the same source.
The target in test [11] is transmembrane mutant TNFα expressed on the surface of CHO cells (UniProt P01375 1-233). In words: cell-based or functional assay.
transmembrane mutant TNFα expressed on the surface of CHO cells, sequence (P01375 whole entry, change not shown, form in doubt): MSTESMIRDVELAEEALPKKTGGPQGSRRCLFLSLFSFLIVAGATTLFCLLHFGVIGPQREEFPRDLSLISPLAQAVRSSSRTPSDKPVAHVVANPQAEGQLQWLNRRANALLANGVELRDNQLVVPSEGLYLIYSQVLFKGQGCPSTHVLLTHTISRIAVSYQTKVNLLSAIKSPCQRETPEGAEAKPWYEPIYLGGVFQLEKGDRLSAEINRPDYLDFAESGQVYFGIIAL
The target in test [12] is T1, human TNFα (Tumor Necrosis …). In words: cell-based or functional assay. The source holds these as a separate data set.
Test [13] concerns the target T4, monkey (cynomolgous macaque) GST-TNFα (cynomolgous macaque, UniProt P79337 77-233).
T4 construct: also called E. coli expressed soluble cynomolgous macaque monkey TNF; monkey TNFα; not shown: GST fusion partner
In words: ELISA, plate coated with 2 µg/ml monkey (cynomolgus macaque) GST-TNFα, HRP goat anti-human IgG detection. On the procedure:
as §3

Test [14] addresses T5, H/M HincII chimeric TNFα (human 1-91, murine 92-157) (human; mouse).
T5 construct: Murine range printed 92-157 (human-aligned); also called Hu/M Hin C l1
T5 chain: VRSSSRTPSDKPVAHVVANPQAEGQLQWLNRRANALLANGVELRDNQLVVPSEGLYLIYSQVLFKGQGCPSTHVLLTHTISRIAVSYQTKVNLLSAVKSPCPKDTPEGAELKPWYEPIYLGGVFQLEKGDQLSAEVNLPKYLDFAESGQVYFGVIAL
In words: ELISA on expressed TNFα constructs.

For test [15], the target named is T6, H/M BglI chimeric TNFα (human 1-36, murine 37-157) (human; mouse, UniProt P06804 81-235).
T6 construct: Murine range is printed as 37-157 in human-aligned numbering; also called H/MBgl1; Hu/MBgl1
T6 chain: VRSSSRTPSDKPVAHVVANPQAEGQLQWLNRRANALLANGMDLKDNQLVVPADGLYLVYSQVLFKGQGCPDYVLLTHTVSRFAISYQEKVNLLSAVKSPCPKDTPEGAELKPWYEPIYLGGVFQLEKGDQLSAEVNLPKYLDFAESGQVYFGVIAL
In words: ELISA on expressed TNFα constructs.

Test [16] has as its target T7, H/M PvuII chimeric TNFα (human 1-125, murine 126-157) (human; mouse).
T7 construct: also called Hu/M PVu11
T7 chain: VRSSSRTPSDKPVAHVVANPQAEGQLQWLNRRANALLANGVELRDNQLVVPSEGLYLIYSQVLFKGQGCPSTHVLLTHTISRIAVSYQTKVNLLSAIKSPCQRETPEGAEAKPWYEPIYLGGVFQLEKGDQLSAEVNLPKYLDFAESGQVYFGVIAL
In words: ELISA on expressed TNFα constructs.

For test [17], the target named is T1, human TNFα (Tumor Necrosis …). Put plainly: cell-based or functional assay. This is another data set of the same source.
For test [18] the target is unchanged. Put plainly: KinExA, unknown antigen concentration method. On the procedure:
as §1

Test [19] addresses T5, H/M HincII chimeric TNFα (human 1-91, …). In words: ELISA on chimeric/mutant TNFα.
Source text: as §2

The target of test [20] is T6, H/M BglI chimeric TNFα (human 1-36, …). In words: ELISA on chimeric/mutant TNFα.
Source text: as §2

Test [21] concerns the target T7, H/M PvuII chimeric TNFα (human 1-125, …). In words: ELISA on chimeric/mutant TNFα.
Source text: as §2

Usually Kd stands for the free concentration of one partner at which half of the binding sites on the other are occupied at equilibrium, for simple one-to-one binding. A word on the EC50 (read off the curve): it is the concentration that produces a half-maximal response.

B1: 3.2 (hybridoma, IgG2) (antibody, V domains shown)
VH: EVQLVQSGAEVKKPGESLKISCKTSEYSFTSYWIGWVRQMPGKGLEWMGIIYLGDSDTRYSPSFQGQVTISADKSISTAYLQWSSLKASDTAMYYCARSNWGLDYWGQGTLVTVSS
VL: QSVLTQPPSVSGAPGQRVTISCTGSSSNIGAGYDVHWYQQFPGTAPKLLIQGNSNRPSGVPDRFSGSKSGTSASLAITGLQAEDEADYYCQSYDSSLSGSVFGGGTKLTVL
notes: Hybridoma derived human IgG2, lambda light chain (V1-13/JL3); also called 3.2 Ab; 3.2.1
Consider B1, for which the “Kd (M) Low” value in test [1] is 2.43e-12 M; in test [6], 7.3e-12 M. The entries for the “Kd (M) High” value in test [2] and in [4] were 2.3e-11 M and 7.6e-12 M, respectively. Besides, the figures for the Kd in test [3] and in test [5] were 0.00477 nM and 0.0143 nM, respectively.

B2: 263 (antibody, human IgG1, V domains shown)
VH: EVQLVESGGGLIQPGGSLRLSCAASGFTVSRNYMSWVRQAPGKGLEWVSVIYSGDRTYYADSVKGRFTISRDNSKNTLYLQMNSLRAEDTAVYYCARGEGGFDYWGQGTLVTVSS
VL: EIVMTQSPATLSVSPGERATLSCRASQSVSSNLAWYQQKPGQAPRLLIHGASIRATGLPARFSGSGSGTEFTLTISSLQSEDFAVYYCQQYNYWWTFGQGTKVEIK
notes: XENOMAX derived, recombinant human IgG1 kappa; also called SC263
In the case of B2, in test [7], the “IC50 1 hr Pre-incubation, TNF induced apoptosis in MCF-7 cells” value was determined as 0.0595 nM. In addition, the “IC50 18 hr Pre-incubation, TNF induced apoptosis in MCF-7 cells” value in test [7] came to 0.037 nM. Also, the binding result in test [8] is recorded as “binds”; with human TNFα R31Q mutant, “binds”; in the test with human TNFα R131Q mutant, “binds”; in the test with mouse TNFα it was “no binding”; in [13], “no binding (tested: 100 ng/ml)”. Also, in the test with human GST-TNFα, the “EC50 (read off the curve)” value was approximately 3 ng/mL. Also, the Kd in [9] came out at 0.00373 nM; in test [6] it was 0.0112 nM. In addition, the “In vivo Potency (IC50), ALT, hTNFα/D-GalN hepatic injury in mice” value in test [10] was found to be 48 nM. Further, the “In vivo Potency (IC50), human TNFα-induced IL-6 in mice” value in test [10] amounted to 35 nM. For the same molecule, in test [11], the “ADCC (%)” value was 10%. Besides, in test [11], the “CDC (%)” value stood at 17%. In test [12], the “Whole Blood IC50, TNFα-induced IL-8 production” value was 0.524 nM.

B3: 4.17 (hybridoma, IgG2) (antibody, V domains shown)
VH: QVQLVESGGGVVQPGRSLRLSCTTSGFTFSNYGMHWVRQAPGKGLEWVAVIWYDGSIKYYVDSVKGRFTISRDNSKNTLYLQMNSLRAEDTAVYYCAREKDCGGDCYSHYGMDVWGQGTTVTVSS
VL: DIQMTQSPSSLSASVGDRVTITCRASQGIRNDLGWYQQKPGKAPKRLIYAASSLQSGVPSRFSGSGSGTEFTLTISSLQPEDFATYYCLQHMSLPLTFGGGTKVEIK
notes: Hybridoma derived human IgG2 kappa
With B3, the binding result (with human TNFα R131Q mutant; in test [14]; in test [15]; in test [16]) was “binds” in each case.

B4: Rabbit R014 (AB-TNFα-R014) (antibody, rabbit IgG1, V domains shown)
VH: QSLEESGGRLVTPGTPLTLTCTVSGIDLSSNTMGWFRRAPGKGLEWIGIIISSGTTYYASWVKGRFTISKTSTTVDLKITRPTTEDTATYFCARGWYEFNLWGPGTLVTVSS
VL: DVVMTQTPASVEAAVGGTVTIKCQASENIDILLAWYQQKVGQPPKLLIYRASKLASGAPSRFSGSGSGTEFTLTISDLECGDAATYYCQSNVGSTARSSYGNAFGGGTEVVVK
notes: Fully rabbit antibody, rabbit IgG1 heavy and kappa constant regions; cloned from well 7A4; also called RO14; Rabbit 014
In the case of B4, in [17], the “Average IC50, TNF induced apoptosis on MCF-7 cells, 1 hour pre-incubation” value was found to be 0.0142 nM. In test [18], binding was characterised by a dissociation constant (Kd) of 0.000787 nM. The “Kd (M) High” value in test [18] came out at 2.47e-12 M. Besides, in [18], the “Kd (M) Low” value is 1.56e-13 M. The binding result (in test [19]; in test [8]; in test [20]; in test [21]; in the test with human TNFα R31Q mutant; with human TNFα R131Q mutant) was “binds” in each case.
